Data reported in PMC10370356, “Molecular dissection studies of TAC1, a transcription activator of Candida drug resistance genes of the human pathogenic fungus Candida albicans” (Frontiers in Microbiology, 2023).

Target: T1, His-tagged C. albicans TATA box Binding Protein (TBP) (C. albicans, UniProt O43133 1-238)
T1 construct: Vector pET28a; fusion protein said to be 30 kDa; also called TBP1; TBP-pET28a; source: E. coli BL21 (DE3), purified (Ni-NTA)
T1 sequence: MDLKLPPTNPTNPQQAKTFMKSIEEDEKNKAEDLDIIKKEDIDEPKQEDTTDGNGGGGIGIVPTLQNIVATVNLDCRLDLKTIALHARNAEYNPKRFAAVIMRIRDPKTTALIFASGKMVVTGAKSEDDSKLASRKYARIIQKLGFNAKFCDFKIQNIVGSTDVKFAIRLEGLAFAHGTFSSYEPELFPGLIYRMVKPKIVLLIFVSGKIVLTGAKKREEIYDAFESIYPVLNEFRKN
Test: pull-down; GST-AAD and His-TBP incubated with Glutathione Sepharose 4B beads, 3 h, 4 C, 20 mM HEPES pH 7.5, 200 mM NaCl, 0.1 mM EDTA, 10% glycerol, 0.1% NP-40; washes with 500 mM NaCl; eluted with 10 mM reduced glutathione; immunoblot with anti-GST and anti-His
Settings: both partners purified

B1: GST-tagged Acidic Activation Domain (AAD) of Tac1p (domain or fragment)
chain: MNPSPTITNNTYNSNINTGSNSTGEPQVCYAQSPSYNASLSNIINNESTGRSPATSTSINQSMMNENYDLFNDYLIDNSAVNLPFSQFNNLPNFFFDNNLGI
notes: amplified from genomic DNA of strain SC5314; Vector pGEX-KG; fusion protein said to be 33 kDa; several closely spaced bands (degradation) on the anti-GST blot; The introduction gives other limits for the AAD (nucleotides 1354-2946); also called Tac1-AAD; TAC1-AAD; source: E. coli BL21 (DE3), purified (Glutathione Sepharose 4B)
  binding result: binds
